# Laboratory results as given in publication PMC4941734, “Structural and dynamics studies of a truncated variant of CI repressor from bacteriophage TP901-1” (Scientific Reports, 2016).
# T1: CI∆58 (CI repressor, C-terminally truncated) (bacteriophage TP901-1 (host Lactococcus lactis)) (UniProt O48503)
# T1 sequence: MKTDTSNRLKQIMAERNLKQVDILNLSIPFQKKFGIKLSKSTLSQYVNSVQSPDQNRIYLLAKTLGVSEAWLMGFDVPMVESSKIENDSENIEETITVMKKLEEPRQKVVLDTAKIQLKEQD
# B1: CI-CTD1, synthetic peptide of the dimerization region of CI repressor from bacteriophage TP901-1 (residues 90–125) (peptide)
# peptide: ENIEETITVMKKLEEPRQKVVLDTAKIQLKEQDEQ
# notes: CI repressor of Lactococcus lactis bacteriophage TP901-1, dimerization region CTD1; printed as residues 90-125 and as a 35 residues peptide; Delivered as a lyophilized chloride salt, purity 98.45%; solubilised at pH 12 and brought back to pH 7.5; source: synthetic peptide, bought: CASLO
# Columns and labels:
# [1] = target: CI∆58, truncated CI repressor from bacteriophage TP901-1 (residues 1–122) (bacteriophage TP901-1) (UniProt O48503); assay: native MS; apo CI∆58 6 μM in 250 mM ammonium acetate, pH 6.8; nano-ESI, quadrupole time-of-flight
# [2] = target: CI∆58, truncated CI repressor from bacteriophage TP901-1 (residues 1–122) (bacteriophage TP901-1) (UniProt O48503); assay: SEC; HiLoad 26/60 Superdex 75; native molecular weight estimated by comparison with globular protein standards
# [3] = test system: CI-NTD (bacteriophage TP901-1 (host Lactococcus lactis)); assay: EMSA; details: 0.4 nM DNA; EMSA: ~0.4-0.5 nM Cy5 DNA, binding solution of ref 3 (not given), on ice 30 min, 2% agarose, 1x TBE, 0 °C; NMR: 300 mM NaCl, 298 K; native MS: 250 mM …
# [4] = target: T1, CI∆58 (CI repressor, C-terminally truncated) (bacteriophage TP901-1 (host Lactococcus lactis)); assay: EMSA; details: 0.4 nM DNA; EMSA: ~0.4-0.5 nM Cy5 DNA, binding solution of ref 3 (not given), on ice 30 min, 2% agarose, 1x TBE, 0 °C; NMR: 300 mM NaCl, 298 K; native MS: 250 mM …
# [5] = target: the molecule itself; assay: SEC; HiLoad 26/60 Superdex 75; native molecular weight estimated by comparison with globular protein standards
molecule,measurement,setting,value
"CI∆58, truncated CI repressor from bacteriophage TP901-1 (residues 1–122) (from UniProt O48503 1-122) (domain or fragment)",stoichiometry N,[1],2
same,stoichiometry N,[2],2
P5 fragment containing OL,Kd,[3],1100 nM
same,Kd,[4],3 nM
B1,stoichiometry N,[5],4
